# Where no end group is shown, it is not given here.
# B1: phage clone Ec a4 (peptide)
# peptide: CSKYNSPLC
# modifications: not fully specified; cysteine pairing not given here; also: displayed on M13 phage pIII
# notes: whole phage in the assay
# B2: phage clone Ec a23 (peptide)
# peptide: CSRPQSGLC
# modifications: not fully specified; cysteine pairing not given here; also: displayed on M13 phage pIII
# notes: whole phage in the assay
# B3: phage clone Ec a3 (peptide)
# peptide: WQMVLCPAC
# modifications: not fully specified; cysteine pairing not given here; also: displayed on M13 phage pIII
# notes: whole phage in the assay
# B4: phage clone Nc 15 (peptide)
# peptide: WEVCLTEKC
# modifications: not fully specified; cysteine pairing not given here; also: displayed on M13 phage pIII
# notes: whole phage in the assay
# B5: phage clone Nc 8 (peptide)
# peptide: WTVCPIGNC
# modifications: not fully specified; cysteine pairing not given here; also: displayed on M13 phage pIII
# notes: whole phage in the assay
# B6: phage clone Nc 25 (peptide)
# peptide: WELCVSSSC
# modifications: not fully specified; cysteine pairing not given here; also: displayed on M13 phage pIII
# notes: whole phage in the assay
# B7: phage clone Nc 5 (peptide)
# peptide: WEFSICETC
# modifications: not fully specified; cysteine pairing not given here; also: displayed on M13 phage pIII
# notes: whole phage in the assay
# Target: T1, E-cadherin/Fc chimeric protein (human, UniProt P12830 155-707)
# T1 construct: range 155-707; Bought from R&D Systems; also called E-cad/Fc; human E-cadherin/Fc chimeric protein; not shown: Fc region of human IgG1
# T1 sequence (looked up): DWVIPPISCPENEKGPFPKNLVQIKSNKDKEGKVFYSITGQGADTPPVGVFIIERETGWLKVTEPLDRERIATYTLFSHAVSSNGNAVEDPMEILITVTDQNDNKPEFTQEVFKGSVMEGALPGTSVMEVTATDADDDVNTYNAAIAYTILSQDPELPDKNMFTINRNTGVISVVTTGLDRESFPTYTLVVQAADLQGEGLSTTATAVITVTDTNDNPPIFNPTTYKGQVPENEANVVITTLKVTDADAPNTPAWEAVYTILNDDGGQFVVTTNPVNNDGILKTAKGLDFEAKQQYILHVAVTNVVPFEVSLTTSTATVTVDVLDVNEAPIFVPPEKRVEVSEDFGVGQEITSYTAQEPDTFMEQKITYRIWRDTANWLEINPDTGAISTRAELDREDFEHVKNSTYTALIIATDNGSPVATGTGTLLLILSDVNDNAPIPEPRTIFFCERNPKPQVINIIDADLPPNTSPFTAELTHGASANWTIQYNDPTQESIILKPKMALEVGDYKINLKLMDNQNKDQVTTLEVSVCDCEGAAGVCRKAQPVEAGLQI
# Assay: summary table, column Peptide Binds to E-cad/Fc; assay not named
row,Binder,binding result
1,H-WYVCVGAH-NH2 (Synthetic linear peptide) [H-WYVCVGAH-NH2],no binding
2,H-SWELYYPLRANL-NH2 (Synthetic linear peptide) [H-SWELYYPLRANL-NH2],binds
3,H-EWMIHYDSALTS-NH2 (Synthetic linear peptide) [H-EWMIHYDSALTS-NH2],binds
4,H-WELRVSSP-NH2 (Synthetic linear peptide) [H-WELRVSSP-NH2],no binding
5,H-HWYITTGPVREK-NH2 (Synthetic linear peptide) [H-HWYITTGPVREK-NH2],no binding

# Target: T2, VE-cadherin/Fc chimeric protein (UniProt P33151 48-593)
# T2 construct: Bought from R&D Systems; also called vascular endothelial (VE)-cadherin/Fc chimeric protein; not shown: Fc part not described
# T2 sequence (looked up): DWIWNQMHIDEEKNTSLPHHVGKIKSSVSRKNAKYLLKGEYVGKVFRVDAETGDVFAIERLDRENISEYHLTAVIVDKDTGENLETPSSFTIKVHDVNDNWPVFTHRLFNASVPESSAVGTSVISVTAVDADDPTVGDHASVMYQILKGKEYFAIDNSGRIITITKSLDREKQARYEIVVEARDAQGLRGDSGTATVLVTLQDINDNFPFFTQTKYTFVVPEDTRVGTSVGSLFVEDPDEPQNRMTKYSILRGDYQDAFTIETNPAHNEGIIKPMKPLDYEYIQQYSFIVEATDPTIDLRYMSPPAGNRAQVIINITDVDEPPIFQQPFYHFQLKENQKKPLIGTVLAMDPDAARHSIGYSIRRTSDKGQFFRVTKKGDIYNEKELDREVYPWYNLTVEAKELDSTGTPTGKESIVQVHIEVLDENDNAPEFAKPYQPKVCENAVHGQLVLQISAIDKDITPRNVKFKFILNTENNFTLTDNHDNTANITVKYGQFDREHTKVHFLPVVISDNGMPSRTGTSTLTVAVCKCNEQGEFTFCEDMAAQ
# Assay: phage ELISA
# Description: (§1) The binding of each clone to the cadherin/Fc chimeric proteins was confirmed by ELISA. Wells of ProBind microtiter plates (Falcon) were coated with either N-cadherin/Fc or E-cadherin/Fc chimeric protein (100 ng/well) or human IgG1 (which contains the Fc fragment) (100 ng/well). After blocking the nonspecific sites with TBS containing 3% BSA and 1.2 mM CaCl₂ for 1 h at 37° C., phage clones (10⁹ pfu) diluted in TBST containing 3% BSA and 1.2 mM CaCl₂ (100 μl/well). Non-coated wells were also used to exclude any phage that bound to the plastic surface. After 1 h incubation at room temperature, wells were washed 3 times with TBST containing 3% BSA and 1.2 mM CaCl₂. M13 phage without any insert were used to control the non-specific binding of the phage itself to the target. Monoclonal anti-M13 antibody conjugated to horseradish peroxidase (Amersham Biosciences, Piscataway, N.J.) was diluted in TBST containing 3% BSA and 1.2 mM CaCl₂ (1:2,000) and added to each well (100 μl/well). After 1 h incubation at room temperature, wells were washed three times with TBST containing 3% BSA and 1.2 mM CaCl₂ and once with TBS containing 1.2 mM CaCl₂. Horseradish peroxidase substrate, TMB (Sigma), was added to each well (100 μl/well and after color development the reaction was stopped by addition of 100 μl 0.5 M sulphuric acid to each well. The intensity of the color was measured at 450 nm.
# (§2) The phage clones shown to bind to the N-cadherin/Fc chimeric protein by ELISA were also evaluated for their ability to bind to E-cadherin/Fc and VE-cadherin/Fc chimeric proteins. The phage clones shown to bind to the E-cadherin/Fc chimeric protein by ELISA were also evaluated for their ability to bind to N-cadherin/Fc and VE-cadherin/Fc chimeric proteins. The same ELISA protocol described in the previous section was used to perform this evaluation with the exception that the wells were coated with either 100 ng N-cadherin/Fc, E-cadherin/Fc or VE-cadherin/Fc chimeric protein (R&D Systems, Minneapolis, Minn.).
row,Binder,binding result
1,WTWHWPPCC (whole phage in the assay) [phage clone Ec a22],no binding (tested: 10^9 pfu)
2,B1,no binding (tested: 10^9 pfu)
3,B2,no binding (tested: 10^9 pfu)
4,B3,no binding (tested: 10^9 pfu)

# Target: T3, N-cadherin/Fc chimeric protein (human, UniProt P19022 160-724)
# T3 construct: range 160-724; Bought from R&D Systems; also called N-cad/Fc; human N-cadherin/Fc chimeric protein; not shown: Fc region of human IgG1
# T3 sequence (looked up): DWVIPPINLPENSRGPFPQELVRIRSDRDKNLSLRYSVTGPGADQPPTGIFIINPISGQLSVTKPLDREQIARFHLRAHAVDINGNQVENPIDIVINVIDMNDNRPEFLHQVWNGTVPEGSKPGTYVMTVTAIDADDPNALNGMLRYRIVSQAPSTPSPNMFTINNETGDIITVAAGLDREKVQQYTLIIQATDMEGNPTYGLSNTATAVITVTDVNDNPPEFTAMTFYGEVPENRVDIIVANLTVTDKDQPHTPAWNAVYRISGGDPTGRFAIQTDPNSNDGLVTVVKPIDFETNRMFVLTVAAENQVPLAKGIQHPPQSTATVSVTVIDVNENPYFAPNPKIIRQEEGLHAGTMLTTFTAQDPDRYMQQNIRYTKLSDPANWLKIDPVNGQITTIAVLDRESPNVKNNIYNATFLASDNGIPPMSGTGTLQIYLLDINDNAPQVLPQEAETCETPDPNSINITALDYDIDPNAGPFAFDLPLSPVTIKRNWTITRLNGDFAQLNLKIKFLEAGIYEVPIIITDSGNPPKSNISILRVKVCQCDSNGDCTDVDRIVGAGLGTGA
# Assay: phage ELISA
# Description: as §1, §2
row,Binder,binding result
1,WTWHWPPCC (whole phage in the assay) [phage clone Ec a22],binds
2,B1,binds
3,B2,binds
4,B3,binds

# Target: T1, E-cadherin/Fc chimeric protein
# Assay: phage ELISA
# Description: as §1, §2
row,Binder,binding result
1,WTWHWPPCC (whole phage in the assay) [phage clone Ec a22],binds
2,B1,binds
3,B2,binds
4,B3,binds

# Target: T2, VE-cadherin/Fc chimeric protein
# Assay: phage ELISA
# Remark: another data set of the same source
# Description: as §2
row,Binder,binding result
1,WLQPYFPSY (whole phage in the assay) [phage clone Nc 1],no binding (tested: 10^9 pfu)
2,B4,no binding (tested: 10^9 pfu)
3,WEVRLTEKC (whole phage in the assay) [phage clone Nc a3],no binding (tested: 10^9 pfu)
4,SWTLYTPSGQSK (whole phage in the assay) [phage clone Nc 12-04],no binding (tested: 10^9 pfu)
5,HWYITTGPVREK (whole phage in the assay) [phage clone Nc 12-01],no binding (tested: 10^9 pfu)
6,SWTLYTPSGQSK (whole phage in the assay) [phage clone Nc 12-a2],no binding (tested: 10^9 pfu)
7,B5,no binding (tested: 10^9 pfu)
8,WELRVSSPC (whole phage in the assay) [phage clone Nc a7],no binding (tested: 10^9 pfu)
9,B6,no binding (tested: 10^9 pfu)
10,WHTSWSDTY (whole phage in the assay) [phage clone Nc 19],no binding (tested: 10^9 pfu)
11,WLQPYFPSY (whole phage in the assay) [phage clone Nc a5],no binding (tested: 10^9 pfu)
12,B7,no binding (tested: 10^9 pfu)

# Target: T1, E-cadherin/Fc chimeric protein
# Assay: phage ELISA
# Remark: another data set of the same source
# Description: as §2
row,Binder,binding result
1,WLQPYFPSY (whole phage in the assay) [phage clone Nc 1],no binding (tested: 10^9 pfu)
2,B4,no binding (tested: 10^9 pfu)
3,WEVRLTEKC (whole phage in the assay) [phage clone Nc a3],no binding (tested: 10^9 pfu)
4,SWTLYTPSGQSK (whole phage in the assay) [phage clone Nc 12-04],no binding (tested: 10^9 pfu)
5,HWYITTGPVREK (whole phage in the assay) [phage clone Nc 12-01],no binding (tested: 10^9 pfu)
6,SWTLYTPSGQSK (whole phage in the assay) [phage clone Nc 12-a2],no binding (tested: 10^9 pfu)
7,B5,no binding (tested: 10^9 pfu)
8,WELRVSSPC (whole phage in the assay) [phage clone Nc a7],no binding (tested: 10^9 pfu)
9,B6,no binding (tested: 10^9 pfu)
10,WHTSWSDTY (whole phage in the assay) [phage clone Nc 19],no binding (tested: 10^9 pfu)
11,WLQPYFPSY (whole phage in the assay) [phage clone Nc a5],no binding (tested: 10^9 pfu)
12,B7,no binding (tested: 10^9 pfu)

# Target: T3, N-cadherin/Fc chimeric protein
# Assay: phage ELISA, 1.2 mM calcium
# Description: as §1
# An ELISA was performed in the presence of either 1.2 mM calcium or 2 mM EDTA. […] The signal obtained in the presence of EDTA was lower than in the presence of calcium.
row,Binder,binding result
1,HWYITTGPVREK (whole phage in the assay) [phage clone Nc 12-01],binds

# Target: T3, N-cadherin/Fc chimeric protein
# Assay: summary table, column Peptide Binds to N-cad/Fc; assay not named
row,Binder,binding result
1,H-WYVCVGAH-NH2 (Synthetic linear peptide) [H-WYVCVGAH-NH2],binds
2,H-SWELYYPLRANL-NH2 (Synthetic linear peptide) [H-SWELYYPLRANL-NH2],binds
3,H-EWMIHYDSALTS-NH2 (Synthetic linear peptide) [H-EWMIHYDSALTS-NH2],binds
4,H-WELRVSSP-NH2 (Synthetic linear peptide) [H-WELRVSSP-NH2],binds
5,H-HWYITTGPVREK-NH2 (Synthetic linear peptide) [H-HWYITTGPVREK-NH2],binds

# Reference: patent US20100240066A1 (MCGILL UNIVERSITY, published 2010)
